This note sets out measurements from US6294648, “Protein having proteinase inhibitor activity” (Bayer Corporation, dated 2001).

The target in test [1] is T1, Human neutrophil cathepsin G (human, UniProt P08311).
T1 sequence: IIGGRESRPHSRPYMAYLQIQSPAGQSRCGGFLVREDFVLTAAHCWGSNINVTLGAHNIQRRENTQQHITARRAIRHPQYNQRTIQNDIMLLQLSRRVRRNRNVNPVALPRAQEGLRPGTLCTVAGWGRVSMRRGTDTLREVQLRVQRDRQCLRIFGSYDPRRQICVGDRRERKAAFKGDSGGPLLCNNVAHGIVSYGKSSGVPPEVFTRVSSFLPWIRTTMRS
Briefly: enzyme inhibition; 30 min preincubation at 37 C; Suc-AAPF-AMC hydrolysis by fluorescence; Ki* corrected for substrate. The procedure:
(§1) The BTL.009 concentration was determined by amino acid analysis. The concentration of human neutrophil elastase, cathepsin G, and proteinase 3 were based on the manufacturer's specifications. […] Hydrolysis of AMC-conjugated peptides was monitored on a Hitachi model F4500 fluorometer (excitation=370 nm, emission=432 nm) over the first 2 minutes of the reaction. Ki* values were determined from plots of fractional rate versus inhibitor concentration, which were fit by nonlinear regression analysis (Enzifitter™ by Bio soft, Cambridge UK) as described (44). Ki values were obtained by correction for the effect of substrate as described (44).

The target in test [2] is Human neutrophil elastase (human, UniProt P08246). Put plainly: enzyme inhibition; 30 min preincubation at 37 C; Suc-AAPV-AMC hydrolysis by fluorescence; Ki* corrected for substrate. The procedure:
as §1

In test [3] the target is T2, Human neutrophil proteinase 3 (human, UniProt P24158).
T2 sequence: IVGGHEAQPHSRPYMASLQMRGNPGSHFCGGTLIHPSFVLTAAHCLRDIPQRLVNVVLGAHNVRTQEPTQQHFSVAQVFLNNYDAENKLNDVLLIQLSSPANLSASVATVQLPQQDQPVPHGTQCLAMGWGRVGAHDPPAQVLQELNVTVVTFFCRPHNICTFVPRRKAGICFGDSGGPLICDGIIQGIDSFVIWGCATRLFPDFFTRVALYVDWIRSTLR
The test is described as above. The procedure: as §1

The Ki is the dissociation constant of the complex between target and ligand, obtained from inhibition or displacement. A high value points to weaker binding.

B1: BTL.009 (other)
chain: KQDVCEMPKETGPCLAYFLHWWYDKKDNTCSMFVYGGCQGNNNNFQSKANCLNTC
Turning to B1, the Ki in test [1] was determined as 1800 nM; in test [2] it was 8 nM; in test [3] it was 190 nM.
